Where a chain is given by its changes, count along the chain named.

Data on six molecules can be found in publication PMC7498356.

The target in one series is T1, AT3G52980-LOTUS (plant, UniProt Q9LF94 199-282).
T1 sequence: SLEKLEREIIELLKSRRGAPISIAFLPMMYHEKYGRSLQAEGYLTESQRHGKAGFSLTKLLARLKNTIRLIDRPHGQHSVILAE
Kind of series: ELISA. (ELISA stands for enzyme-linked immunosorbent assay.)

The next series deals with T2, human MARF1 L7 (Homo sapiens, UniProt Q9Y4F3 1411-1485).
T2 sequence: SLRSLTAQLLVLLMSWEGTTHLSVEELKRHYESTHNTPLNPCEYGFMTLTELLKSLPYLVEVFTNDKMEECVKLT
Kind of series: ELISA.

In a further series the target is T3, Oskar LOTUS (eLOTUS) (Drosophila, UniProt P25158 139-241).
T3 sequence: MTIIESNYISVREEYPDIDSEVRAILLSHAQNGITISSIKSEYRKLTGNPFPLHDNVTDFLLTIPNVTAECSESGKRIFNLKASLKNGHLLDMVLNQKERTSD
The series is described as follows: ELISA.

A further series addresses T4, TDRD7 L2 (Mus musculus, UniProt Q8K1H1 222-291).
T4 sequence: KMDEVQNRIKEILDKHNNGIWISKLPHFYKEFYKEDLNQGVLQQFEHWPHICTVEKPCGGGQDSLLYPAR
The series is described as follows: ELISA.

A further series addresses T5, human TDRD5 L1 (Homo sapiens, UniProt Q8NAT2 7-80).
T5 sequence: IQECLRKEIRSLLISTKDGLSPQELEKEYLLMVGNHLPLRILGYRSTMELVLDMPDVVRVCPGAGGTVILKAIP
Kind of series: ELISA.

In another series the target is human TDRD7 L1 (Homo sapiens, UniProt Q8NHU6 3-76). Kind of series: ELISA.
human TDRD7 L1, sequence (Q8NHU6 3-76): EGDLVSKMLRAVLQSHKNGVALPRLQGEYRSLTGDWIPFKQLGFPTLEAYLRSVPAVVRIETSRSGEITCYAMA
For a further series, the target named is T6, Tejas LOTUS (Drosophila, UniProt A1Z9P1 6-79).
T6 sequence: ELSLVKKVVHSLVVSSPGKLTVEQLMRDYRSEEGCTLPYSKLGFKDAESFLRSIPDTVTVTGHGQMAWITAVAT
Kind of series: ELISA.

For a further series, the target named is T7, TDRD7 L3 (Mus musculus, UniProt Q8K1H1 325-394).
T7 sequence: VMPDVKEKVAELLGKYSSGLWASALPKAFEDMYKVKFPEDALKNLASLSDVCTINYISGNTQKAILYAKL
The series is described as follows: ELISA.

In the next series the target is T8, TDRD7 L1 (Mus musculus, UniProt Q8K1H1 3-76).
T8 sequence: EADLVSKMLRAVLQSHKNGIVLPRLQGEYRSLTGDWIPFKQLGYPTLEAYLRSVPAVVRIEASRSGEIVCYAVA
The series is described as follows: ELISA.

A further series deals with T9, TP0894-LOTUS (Treponema pallidum subsp. pallidum str. …, UniProt O83864 178-253).
T9 sequence: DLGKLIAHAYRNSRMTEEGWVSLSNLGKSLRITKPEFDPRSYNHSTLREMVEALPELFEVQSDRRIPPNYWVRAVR
The series is described as follows: ELISA.

For another series, the target named is T10, human MARF1 L1 (Homo sapiens, UniProt Q9Y4F3 875-949).
T10 sequence: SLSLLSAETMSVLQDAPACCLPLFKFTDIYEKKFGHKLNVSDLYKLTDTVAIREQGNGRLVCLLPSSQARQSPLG
Kind of series: ELISA.

In series [1] the target is T11, TDRD5 LOTUS domain 3 (L3) (Mus musculus, UniProt Q5VCS6 291-365).
T11 sequence: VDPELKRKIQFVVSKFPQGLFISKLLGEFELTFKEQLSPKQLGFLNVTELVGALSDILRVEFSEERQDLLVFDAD
Kind of series: pull-down, ELISA.

Series [2] deals with T12, TDRD5 LOTUS domain 1 (L1) (Mus musculus, UniProt Q5VCS6 7-80).
T12 sequence: T5 sequence with E3D, S21T, E24Q, R59S, A64G, G65D
The series is described as follows: DRaCALA.

In series [3] the target is T12, TDRD5 LOTUS domain 1 (L1). The series is described as follows: pull-down, ELISA.
Series [4] deals with T13, TDRD5 LOTUS domain 2 (L2) (Mus musculus, UniProt Q5VCS6 122-197).
T13 sequence: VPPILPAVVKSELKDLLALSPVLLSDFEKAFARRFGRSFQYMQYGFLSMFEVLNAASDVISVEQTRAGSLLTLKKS
The series is described as follows: pull-down, ELISA.

In series [5] the target is T12, TDRD5 LOTUS domain 1 (L1). Kind of series: ELISA.
Series [6] concerns the target T11, TDRD5 LOTUS domain 3 (L3). The series is described as follows: ELISA.

As for GGUGGGCAGGGGAGUGGGGGUGGG (structured_RNA) [Cluster G4-1 RNA], the binding result with AT3G52980-LOTUS, with human MARF1 L7, in the series with Oskar LOTUS (eLOTUS), with TDRD7 L2, in the series with human TDRD5 L1 and with human TDRD7 L1 was “binds” throughout. Further, the binding result is listed as “binds” with Tejas LOTUS; “binds” with TDRD7 L3; “binds” with TDRD7 L1; “binds” with TP0894-LOTUS; “binds” with human MARF1 L1; “no binding” in series [1]. In addition, the binding result in series [2] is “binds”.

Consider AAAAAAAAAAAAAAAAAAA (ssRNA) [Poly(A)], for which the binding result in [3], in [4] and in series [1] was “no binding” each time.

Consider TTAGGGTTAGGGTTAGGGTTAGGG (structured_DNA) [TERRA G4 DNA], for which the binding result in series [5] was “no binding”.

Regarding GGGGGGGGGGGGGGGGGGG (ssRNA) [Poly(G)], the binding result in series [6] is “no binding”.

Consider UUUUUUUUUUUUUUUUUUU (ssRNA) [Poly(U)], for which the binding result in series [3], in series [4] and in [1] was “no binding” each time.

With CCCCCCCCCCCCCCCCCCC (ssRNA) [Poly(C)], the binding result in [3], in series [4] and in series [1] was “no binding” throughout.
